Results reported in the DeepSol protein solubility set.

Assay: soluble on expression in E. coli; label from the status in PepcDB or PDB records

Sequence | soluble on expression in E. coli
MNSDLALLRLLQLASPGLPVGGFTYSQGLEWAVEAGWVRGVDSFAGWQREQVHDTLACLDWPVLARLYHACQAKDAEAFGHWSRFLLANRETAELRLEEQQRGAALARLLDGWQLGQAPAWRASLELTQLGGMAWLAAHWAIPLRQLALGHGFAWLEGAVMAGVKLVPFGQQAAQTLLRDLGADLPAALDQALALGDDQLGGGLPLLAIASSRHETQYTRLFRSLEHHHHHH | soluble
MSSAATPPPMEHTSSEDSTTAPLQTPSSSSCLDVTVAVGTSVSYLKASPLVSSPTSLVVDITESSSTLLYDKIKALPCEPVVTEVDTSTLRKETLNQIDGLLGPSPEALELRQLLNSPHLASCVQALDVVVCEIRDPKNEASGSGDKEGNCVSSDPAPAYLNGGVLPLGAQRAGTSFEHFNQSAVHTSYDEEEEELYDCMSRLRLVQFQKDTQEPMGITLKVNEDGRCFVARIMHGGMIHRQATLHVGDEIREINGMSVANRSVESLQEMLRDARGQVTFKIIPSYRSAPPACEIFVRAQFDYEPSQDDLIPCPQAGIPFKTGDILQVISKDDHNWWQARFVSSFPSIGNSSNAQRSNQQQVAGLIPSPELQEWRTACLAMERSKNTCNTHCMWFNKKKKYYTTKYLQKHSALFDQLDLVTYEEVMRLSQYRRKTLVLLGAHGVGRRHIKNTLIHRHPNRFAYPIPHTTRPPRKDEVDGKHYYFVTNEQMMADIQNNEYLEYGTHEESMYGTKLETIRNIHKSGKIAILDVEPQALKVLRTAEYSPFVVFIAAPNLQGMQDPDGSLEKLLNESDVLRQAFGHLFDFIITNSDIDDTIAQLERLVEKLPAYPQWLPVTWVY | not soluble
GSMAEGSAVSDPQHAARLLRALSSFREESRFCDAHLVLDGEEIPVQKNILAAASPYIRTKLNYNPPKDDGSTYKIELEGISVMVMREILDYIFSGQIRLNEDTIQDVVQAADLLLLTDLKTLCCEFLEGCIAAENCIGIRDFALHYCLHHVHYLATEYLETHFRDVSSTEEFLELSPQKLKEVISLEKLNVGNERYVFEAVIRWIAHDTEIRKVHMKDVMSALWVSGLDSSYLREQMLNEPLVREIVKECSNIPLS | soluble
MSEVESQQSQETNGSSKFDVPEIELIIKASTIDGRRKGACLFCQEYFMDLYLLAELKTISLKVTTVDMQKPPPDFRTNFEATHPPILIDNGLAILENEKIERHIMKNIPGGYNLFVQDKEVATLIENLYVKLKLMLVKKDEAKNNALLSHLRKINDHLSARNTRFLTGDTMCCFDCELMPRLQHIRVAGKYFVDFEIPTHLTALWRYMYHMYQLDAFTQSCPADQDIINHYKLQQSLKMKKHEELETPTFTTYIPIDISE | soluble
MSLTSQITSNSPVKWKRRTRHDTCGKITLFALQKTMYFDNLSTKKHNLDNLELERSCFEISETMDSSLSIITYSMSVHSLQKNGEPMKQEKQQFIKTDWTIDMINRRQFEKYAIDILTATKDIHRGGWVERIDNKAWQYVRVYENGDIEVLITLQIIRFHKYFDTPVWLQFNPNHLLPADYVQLDHVMKYVDHSHLTRADLANDIYNINLQRYDFGLFGVTRDIYRSLSGDLETRYWGRRKSERQIRLYDKMREMKKHGKADDIPDGITDWWRLEFQFRGGKVESWQEEVEGHHHHHH | not soluble
QRKVSVAGAITTMDPAQLEVPATNIVNTLAGRVAGVIGVQSSGEPGKNISEFWVRGIGTFGANSGALVLIDGLEGSLSQIDAADVESFSVLKDAAATAVYGSRGANGVVLVTTKRGLES | not soluble
